In assay [1] the target is DNAJB14-ΔDUF, FLAG-tagged (human). The experiment in a line: co-IP; HEK293T cells transfected with FLAG-tagged chaperone (DNAJB12 isoforms alone or with HTT-134Q-GFP or HTT-17Q-GFP; DNAJB14 forms also in cells expressing FUS-WT-YFP or FUS-R521H-YFP), lysed 48 h later in 50 mM HEPES pH 7.9, 0.5% Triton X-100, 5% glycerol, 150 mM NaCl, 2 mM EDTA; anti-FLAG M2 beads 3 h at 4 °C, 7 washes; blot with anti-HSC70/HSP70 for endogenous HSP70.

For assay [2] the target is unchanged. Put plainly: co-IP; HEK293T cells co-transfected with FLAG-tagged DNAJB14 forms and DNAJB12-FL-mOrange; lysis in 50 mM HEPES pH 7.9, 0.5% Triton X-100, 5% glycerol, 150 mM NaCl, 2 mM EDTA; anti-FLAG M2 beads 3 h at 4 °C, 7 washes; blot with anti-RFP for mOrange, normalised to the FLAG band.

In assay [1], “HSP70 (from UniProt P0DMV8 1-641) (natural protein)” showed an interaction as percent of that of DNAJB14-FL of 50%.

B1: DNAJB12-FL-mOrange (natural protein)
chain: MESNKDEAERCISIALKAIQSNQPDRALRFLEKAQRLYPTPRVRALIESLNQKPQTAGDQPPPTDTTHATHRKAGGTDAPSANGEAGGESTKGYTAEQVAAVKRVKQCKDYYEILGVSRGASDEDLKKAYRRLALKFHPDKNHAPGATEAFKAIGTAYAVLSNPEKRKQYDQFGDDKSQAARHGHGHGDFHRGFEADISPEDLFNMFFGGGFPSSNVHVYSNGRMRYTYQQRQDRRDNQGDGGLGVFVQLMPILILILVSALSQLMVSSPPYSLSPRPSVGHIHRRVTDHLGVVYYVGDTFSEEYTGSSLKTVERNVEDDYIANLRNNCWKEKQQKEGLLYRARYFGDTDMYHRAQKMGTPSCSRLSEVQASLHG
In assay [2], B1 gave a fold lower interaction than with DNAJB14-FL of 3 fold.

For the origin of these results see PMC8792056 (2022).
